4 molecules from US20170226192A1 can be followed below.

For assay [1], the target named is Ravn pin peptide … (Marburg virus, strain Ravn). The assay is described as follows: pin peptide ELISA, pin D4; overflow value is greater than 3.9. In general terms: ELISA stands for enzyme-linked immunosorbent assay.
Assay [2] has the same target. Put plainly: pin peptide ELISA, pin D5.
Assay [3] has the same target. Put plainly: pin peptide ELISA, pin D6.
Assay [4] addresses Ravn pin peptide […] (Marburg virus, strain Ravn). Put plainly: pin peptide ELISA, pin D6; overflow value is greater than 3.9.
Assay [5] concerns the target Ravn pin peptide … (Marburg virus, strain Ravn). Put plainly: pin peptide ELISA, pin D4.
Assay [6] shares this target. Put plainly: pin peptide ELISA, pin D5; overflow value is greater than 3.9.
For assay [7] the target is unchanged. The assay is described as follows: pin peptide ELISA, pin printed as D6.
For assay [8] the target is unchanged. The assay is described as follows: pin peptide ELISA, pin printed as D5.

Changes are numbered by the printed parent chain.

B1: CAN30G4 (antibody, V domains shown)
VH: EVKLVESGGGLVKSGGSLKLSCAVSGFTFSTYAMSWVRQIPEKRLEWVATISNGGSYIYYSDSVKGRFTISRDNAKNTLYLQMSSLRSEDTAMYYCARHRESYRYDWFAYWGQGTLVTVSA
VL: DVLMTQTPLSLPVSLGDQASISCRSSQNIVHSDGNTYLEWYLQKPGQSPKLLIYKFSNRFSGVPDRFSGSGSGTDFTLKISRVEAEDLGVYYCFQGSHVPPTFGAGTKLELK
For B1, the Absorbance (1 hour) in assay [1] was above 3.9; in assay [2], 1.97.

B2: CAN30G3 (antibody, V domains shown)
VH: QVQLKESGPGLVAPSQSLSITCTVSGFSLTDYGITWIRQPPGKGLEWLGVIWGGGSAYYNLVLKSRLSISKDNSKSQVFLKMNSLQTDDTAMYYCAKHRTLITTAMDYWGQGISVTVSS
VL: B1 VL with D33N, P45S, F56V, V99F, P101W, A105G, L111I
Regarding B2, the Absorbance (1 hour) in assay [3] was found to be 1.12; in assay [2] it was 1.84.

B3: CAN30G5 (antibody, V domains shown)
VH: EVQLVESGGGLVQPKGSLKLSCAASGFAFNSYAMHWVCQAPGKGLEWVARIRIKSGNYATSYAGSVTDRFTVSRDDSQNLFYLQMNNLKTEDTAMYYCVREWEGAMDYWGQGTSVTVSS
VL: DIVLTQSPLSLPVSLGDQASISCRSSQSLVHSNGNTYLHWYLQKPGQSPNLLIYKVSNRFSGVPDRFSGSGSGTDFTLKISRVEAEDLGVYFCSQSTHVPWTFGGGTKLEIK
Take B3: the results for the Absorbance (1 hour) in assay [4], in assay [5] and in assay [6] were above 3.9, 0.631 and above 3.9, respectively.

B4: CAN54G2 (antibody, V domains shown)
VH: QVQLQQSGTELVRPGTSVKISCKASGYDFTNFWLGWIKQRPGHGLEWIGDIYPGGDNTYYNEKFKGKVTLTADKSSNTAYMQFSSLTSEDSAVYFCFMILYTLDYWGQGTSVTVSS
VL: not shown
For B4, the Absorbance (1 hour) in assay [7] was 1.85; in assay [8] it was 2.76.
